Experimental data: patent US20210101970A1 (Pfizer, published 2021)

Assays:
[1] = biological target: T1, human CXCR5 (human, UniProt P32302 1-372); assay: cell-based or functional assay
T1 sequence: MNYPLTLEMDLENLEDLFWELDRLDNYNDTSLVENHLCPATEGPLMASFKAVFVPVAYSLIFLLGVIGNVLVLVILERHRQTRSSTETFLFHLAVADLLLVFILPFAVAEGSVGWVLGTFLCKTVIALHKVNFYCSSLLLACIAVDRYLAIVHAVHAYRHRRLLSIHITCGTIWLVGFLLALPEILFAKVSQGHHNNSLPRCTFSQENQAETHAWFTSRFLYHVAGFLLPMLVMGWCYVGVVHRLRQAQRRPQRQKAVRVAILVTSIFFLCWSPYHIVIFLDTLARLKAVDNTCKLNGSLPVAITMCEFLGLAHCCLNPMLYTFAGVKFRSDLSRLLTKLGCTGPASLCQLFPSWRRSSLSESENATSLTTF

[2] = biological target: T1, human CXCR5; assay: cell-based or functional assay; remark: listed apart in the source
[3] = biological target: T1, human CXCR5; assay: cell-based or functional assay; remark: listed apart in the source
[4] = biological target: T2, mouse CXCR5 (mouse, UniProt Q04683 1-374); assay: flow cytometry on cells expressing mouse CXCR5
T2 construct: also called mCXCR5
T2 sequence: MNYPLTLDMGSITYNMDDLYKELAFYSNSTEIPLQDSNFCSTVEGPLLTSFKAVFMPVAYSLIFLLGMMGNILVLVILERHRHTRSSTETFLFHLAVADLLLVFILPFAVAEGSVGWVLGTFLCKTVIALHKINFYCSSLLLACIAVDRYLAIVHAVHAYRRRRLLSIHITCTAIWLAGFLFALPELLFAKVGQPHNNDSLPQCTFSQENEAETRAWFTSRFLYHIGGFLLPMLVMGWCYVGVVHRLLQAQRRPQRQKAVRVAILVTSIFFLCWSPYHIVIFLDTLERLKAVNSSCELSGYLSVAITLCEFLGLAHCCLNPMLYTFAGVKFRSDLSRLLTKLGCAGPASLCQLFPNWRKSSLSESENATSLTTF

[5] = biological target: T1, human CXCR5; assay: flow cytometry on Raji cells, gMFI titration
Protocol: The apparent affinity of antibody binding to Raji cells was calculated as the EC₅₀ of equilibrium binding titration curves in which the geometric mean fluorescence intensity (gMFI) of the antigen binding population was quantified by flow cytometry and the results are shown in Table 2.

[6] = biological target: T1, human CXCR5; assay: FACS on cells expressing the CXCR5 construct
[7] = biological target: T2, mouse CXCR5; assay: FACS on cells expressing the CXCR5 construct
[8] = biological target: T3, XC251; assay: FACS on cells expressing the CXCR5 construct
T3 construct: whole, on cells; also called hCXCR5-mL3

[9] = biological target: T4, XC252; assay: FACS on cells expressing the CXCR5 construct
T4 construct: whole, on cells; also called hCXCR5-mL2

[10] = biological target: T5, XC253; assay: FACS on cells expressing the CXCR5 construct
T5 construct: whole, on cells; also called hCXCR5-mN

[11] = biological target: T6, XC254; assay: FACS on cells expressing the CXCR5 construct
T6 construct: whole, on cells; also called hCXCR5-mL2-mL3

[12] = biological target: T7, XC255; assay: FACS on cells expressing the CXCR5 construct
T7 construct: whole, on cells; also called hCXCR5-mN-mL3

[13] = biological target: T8, XC256; assay: FACS on cells expressing the CXCR5 construct
T8 construct: whole, on cells; also called hCXCR5-mN-mL2

[14] = biological target: T9, XC280 (human, UniProt P32302 2-372); assay: flow cytometry on HEK-293T cells transiently expressing the FLAG-tagged mutein; ratio of gMFI of the antibody to gMFI of anti-FLAG PE
T9 construct: also called hCXCR5 W19K
T9 sequence: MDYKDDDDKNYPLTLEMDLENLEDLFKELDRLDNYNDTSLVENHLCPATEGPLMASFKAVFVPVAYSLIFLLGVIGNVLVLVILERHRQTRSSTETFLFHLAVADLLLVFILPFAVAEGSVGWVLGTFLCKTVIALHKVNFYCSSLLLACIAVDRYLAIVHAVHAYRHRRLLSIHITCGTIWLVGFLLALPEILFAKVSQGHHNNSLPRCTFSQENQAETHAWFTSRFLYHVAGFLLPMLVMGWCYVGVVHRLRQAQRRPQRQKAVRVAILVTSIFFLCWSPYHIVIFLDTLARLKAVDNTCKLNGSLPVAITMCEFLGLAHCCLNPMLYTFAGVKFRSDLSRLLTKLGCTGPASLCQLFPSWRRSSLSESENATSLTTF
Protocol: The cells were analyzed by flow cytometry using an Accuri (BD Biosciences Franklin Lakes, N.J.). The geometric mean fluorescence intensity (gMFI) was determined and the ratio for the gMFI of each CXCR5 antibody and anti-flag was calculated.

[15] = biological target: T10, cynomolgus monkey CXCR5 (cynomolgus monkey, UniProt P32302 1-372 (human entry)); assay: cell-based or functional assay
T10 chain: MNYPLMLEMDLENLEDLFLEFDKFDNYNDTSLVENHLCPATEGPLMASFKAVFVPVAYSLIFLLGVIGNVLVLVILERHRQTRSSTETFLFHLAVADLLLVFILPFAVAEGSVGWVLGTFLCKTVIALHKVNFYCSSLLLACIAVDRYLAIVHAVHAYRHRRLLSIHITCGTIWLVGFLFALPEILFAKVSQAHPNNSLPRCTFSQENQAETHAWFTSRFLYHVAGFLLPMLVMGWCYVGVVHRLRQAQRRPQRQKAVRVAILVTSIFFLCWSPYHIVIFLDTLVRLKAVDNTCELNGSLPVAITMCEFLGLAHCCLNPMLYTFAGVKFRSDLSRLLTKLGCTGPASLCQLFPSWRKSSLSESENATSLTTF

[16] = biological target: T1, human CXCR5; assay: flow cytometry, human PBMC B cells
[17] = biological target: T1, human CXCR5; assay: flow cytometry, human PBMC B cells; remark: listed apart in the source
Protocol: (§1) The apparent affinity for cell surface CXCR5 of chimeric and humanized CXCR5 fucosylated and afucosylated antibodies was assessed. More specifically, to determine the apparent affinity of chimeric and humanized CXCR5 antibodies to CXCR5-expressing cells, cell binding experiments were performed on human and cynomolgus monkey peripheral blood mononuclear cells (PBMCs) and human tonsillar mononuclear cells (TMCs). The apparent affinity of CXCR5 mab binding to CXCR5+ cells (B cells, bona fide Tfh cells, and circulating Tfh-like cells) was calculated as the EC50 of equilibrium binding titration curves in which the geometric mean fluorescence intensity (gMFI) of the antigen binding population was quantified by flow cytometry.
(§2) Following isolation, PBMCs were plated at a density of 1.0×10⁵ cells per well and CD4+ TMCs were plated at a density of 2.0×10⁵ cells per well in isolation buffer (PBS containing 1% FBS and 1 mM EDTA) in 96 well U-bottom plates. The plates were then centrifuged at 1500 rpm for 5 minutes at room temperature. PBMCs and CD4+ TMCs were resuspended in Fluorescence-activated cell sorting (FACS) buffer (PBS containing 1% FBS) containing human crystallized fragment Fc block (2 μL per well; Biolegend) and 4-fold serial dilutions of the antibodies (11-point dilution series, beginning at 5000 ng/mL for PBMCs and 312.5 ng/mL for CD4+ TMCs) and incubated on ice for 2 hours. PBMCs and CD4+ TMCs were then washed with FACS buffer 3 times and resuspended in 50-100 μL of FACs buffer containing fluorescent-conjugated antibodies for staining lymphocyte subsets and a fluorescent-conjugated secondary antibody against human Ig to detect CXCR5 monoclonal antibodies (mAbs). After incubation for 30 minutes at 4° C., PBMCs and CD4+ TMCs were washed with FACS buffer 2 times and resuspended in 125 μL of 0.5% paraformaldehyde (PFA) in PBS. Plates were stored at 4° C. until analysis by flow cytometry (BD LSRFortessa™ Cell Analyzer, BD Biosciences, Franklin Lakes, N.J.).
(§3) The cell binding titration curves were generated by plotting the gMFI of the antigen binding population against the log of CXCR5 antibody concentration. EC₅₀ values were determined using GraphPad Prism® (version 6.0, GraphPad Software, Inc, San Diego, Calif.) nonlinear-regression curve fits and a sigmoidal log of agonist dose-response model, according to the following equation

[18] = biological target: T1, human CXCR5; assay: flow cytometry, human tonsil Tfh cells
Protocol: Following centrifugation, red blood cell lysis was performed on the pellet using an ammonium chloride lysis buffer. Platelets were removed using a low speed centrifugation (200×g) for 10 minutes in Phosphate-Buffered Saline (PBS)/2% FBS/2 mM Ethylenediaminetetraacetic acid (EDTA). CD4+ T cells were purified out of the TMC mixture using an EasySep™ Human CD4+ T Cell Enrichment Kit, according to the manufacturer's instructions ([…] Technologies, Vancouver, BC, Canada).
as §2, §3

[19] = biological target: T10, cynomolgus monkey CXCR5; assay: flow cytometry, cynomolgus PBMC B cells
Protocol: as §1, §2, §3

[20] = biological target: T1, human CXCR5; assay: flow cytometry, human PBMC Tfh-like cells
Protocol: as §1
(§4) Following isolation, PBMCs were plated at a density of 1.0×10⁵ cells per well and CD4+ TMCs were plated at a density of 2.0×10⁵ cells per well in isolation buffer (PBS containing 1% FBS and 1 mM EDTA) in 96 well U-bottom plates. The plates were then centrifuged at 1500 rpm for 5 minutes at room temperature. PBMCs and CD4+ TMCs were resuspended in Fluorescence-activated cell sorting (FACS) buffer (PBS containing 1% FBS) containing human crystallized fragment Fc block (2 μL per well; Biolegend) and 4-fold serial dilutions of the antibodies (11-point dilution series, beginning at 5000 ng/mL for PBMCs and 312.5 ng/mL for CD4+ TMCs) and incubated on ice for 2 hours. […]

[21] = biological target: T10, cynomolgus monkey CXCR5; assay: flow cytometry, cynomolgus PBMC Tfh-like cells
Protocol: as §1, §4

[22] = biological target: T1, human CXCR5; assay: flow cytometry, B cells from human PBMCs (FIG. 5); fucosylated
[23] = biological target: T1, human CXCR5; assay: flow cytometry, B cells from human PBMCs (FIG. 5); comparator 11A7

B1: 16D7 (reference antibody) (antibody, human IgG1, kappa, V domains shown)
VH: QVQLKESGPGLVAPSESLSITCTVSGFSLIDYGVNWIRQPPGKGLEWLGVIWGDGTTYYNPSLKSRLSISKDNSKSQVFLKVTSLTTDDTAMYYCARIVYWGQGTLVTVSA
VL: DIVMTQAAPSVAVTPGASVSISCRSSKSLLHSSGKTYLYWFLQRPGQSPQLLIYRLSSLASGVPDRFSGSGSGTAFTLRISRVEAEDVGVYYCMQHLEYPYTFGGGTKLEIKR
notes: fucosylated; also called S16D7
For B1, the “Ca2+ flux IC50” value [1] was 11.4 nM, the “ADCC Activity Average EC50, Human B Cells” value [2] was 2.59 nM and the “% Inhibition CXCL13” value [3] was 102%. For the same binder, the “EC50, stimulation of CXCL13-inhibited cAMP production” value [3] was 1.1 nM, the binding result [4] was “no binding” and the EC50 [5] was 0.65 nM. It also gave a GMFI [6] of 150000 GMFI, a GMFI [7] of 958 GMFI and a GMFI [8] of 19900 GMFI. The GMFI [9] was 27000 GMFI, the GMFI [10] was 1260 GMFI and the GMFI [11] was 16900 GMFI. For the same binder, the GMFI [12] was 1340 GMFI, the GMFI [13] was 1380 GMFI and the binding result [14] was “no binding (tested: 1 or 3 µg/ml (not on the sheet))”.

B2: Humanized 11G2 154/155 (antibody, human IgG1, kappa, V domains shown)
VH: EVQLVESGGGLVQPGGSLRLSCAASGFTFTDFYMSWVRQAPGKGLEWVGFIRNKANGYTTEYSASVKGRFTISRDNAKNSLYLQMNSLRAEDTAVYYCARVYGSTLHYWGQGTLVTVSS
VL: DIQMTQSPSSLSASVGDRVTITCRASESVEYHGTSLMHWYQQKPGKAPKLLIYAASNVESGVPSRFSGSGSGTDFTLTISSLQPEDFATYYCQQSRKVPWTFGQGTKVEIKR
notes: fucosylated human IgG1/kappa; also called h11G2 VL XC154/VH XC155
B2 was tested, and the “ADCC Activity Average EC50, Human B Cells” value [2] was 0.254 nM, the “ADCC Activity Average EC50, Human Tfh Cells” value [2] was 0.00077 nM and the “ADCC Activity Average EC50, Human Tfh-like Cells” value [2] was 0.00798 nM. For the same binder, the “ADCC Activity Average EC50, NHP B Cells” value [15] was 0.0391 nM, the “% Inhibition CXCL13” value [3] was 121% and the “EC50, stimulation of CXCL13-inhibited cAMP production” value [3] was 0.753 nM. For the same binder, the “fold greater affinity than 2C9” value [16] was ≥ 10 fold, the “fold greater affinity than 11A7” value [16] was ≥ 100 fold and the “fold higher affinity than 2C9” value [16] was ~10 fold. For the same binder, the “fold higher affinity than 11A7” value [16] was ~100 fold, the EC50 [17] was 0.00708 nM and the EC50 [18] was 0.00825 nM. The EC50 [19] was 0.00413 nM, the EC50 [20] was 0.00592 nM and the EC50 [21] was 0.00565 nM. It also gave an EC50 [22] of 0.00963 nM.

B3: 11A7 (reference antibody) (antibody, human IgG1, lambda, V domains shown)
VH: EVQLVESGGGLVQPGGSLRLSCAASGFTVSSNYMSWVRQAPGKGLEWVSVIYSGGSTYYADSVKGRFTISRHNSKNTLYLQMNSLRAEDTAVYYCARGYVVWGQGTLVTVSS
VL: QPVLTQPPSVSKDLRQTATLTCTGNSNNVGNQGATWLQQHQGHPPKLLSYKNNNRPSGISERFSASRSGNTASLTITGLQPEDEADYYCSAWDSSLSAWVFGGGTQLTVLG
notes: fucosylated
B3 was tested, and the “ADCC Activity Average EC50, Human B Cells” value [2] was 0.00435 nM, the “% Inhibition CXCL13” value [3] was 106% and the “EC50, stimulation of CXCL13-inhibited cAMP production” value [3] was 1.4 nM. The EC50 [17] was 0.564 nM, the binding result [4] was “no binding” and the EC50 [23] was 0.926 nM. B3: no binding (tested: 1 or 3 µg/ml (not on the sheet)) [14].
